# Target: human SNAP‐GLP‐1 receptor (HEK293‐SNAP‐GLP‐1 receptor cells) (human) (UniProt P43220)
# Experiment: FRET or BRET
# Chain of human SNAP‐GLP‐1 receptor (HEK293‐SNAP‐GLP‐1 receptor cells) (human) (P43220 24-463): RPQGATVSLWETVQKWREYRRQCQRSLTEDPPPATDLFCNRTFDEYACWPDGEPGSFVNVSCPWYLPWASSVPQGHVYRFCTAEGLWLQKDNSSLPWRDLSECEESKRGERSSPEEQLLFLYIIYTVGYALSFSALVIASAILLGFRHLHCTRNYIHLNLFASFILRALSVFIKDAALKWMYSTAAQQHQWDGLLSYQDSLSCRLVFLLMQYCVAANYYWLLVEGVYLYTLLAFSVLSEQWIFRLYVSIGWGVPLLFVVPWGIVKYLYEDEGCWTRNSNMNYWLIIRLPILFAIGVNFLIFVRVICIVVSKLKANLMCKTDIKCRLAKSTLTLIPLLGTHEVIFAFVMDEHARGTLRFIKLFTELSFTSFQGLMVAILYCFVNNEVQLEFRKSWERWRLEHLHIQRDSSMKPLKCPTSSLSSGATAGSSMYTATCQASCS
row,Substance,log KD
1,exendin‐4 (from UniProt P26349 48-87) (peptide),-9.2
2,lixisenatide (peptide),-9

# Reference: paper PMC7429481, “Signalling, trafficking and glucoregulatory properties of glucagon‐like peptide‐1 receptor agonists exendin‐4 and lixisenatide” (British Journal of Pharmacology, 2020)
